Data on four molecules can be found in patent publication US20200199207A1 (MABYLON, published 2020).

By EC50 is commonly meant the concentration giving half of the maximal effect. Low values mean an effect from little substance, high ones a need for much substance.

Experiment [1] concerns the target T1, nAra h 3 (peanut).
T1 construct: Bought natural allergen; also called naturally extracted Ara h 3
The experiment is described as follows: ELISA, antigen-coated plate.

The target in experiment [2] is T2, Peptide 6 (peanut).
T2 construct: also called linear Ara h 2 peptide 6
T2 peptide: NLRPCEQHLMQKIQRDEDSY
The experiment is described as follows: competition ELISA, peptide in solution vs coated Ara h 2. How it is done:
(§1) A competition ELISA was used to evaluate binding of exemplary anti-peanut antibodies of the present invention to linear Ara h 2 epitopes. Serial dilutions of linear Ara h 2 epitopes (100 μM down to 0.19 nM; peptides with a length of 20 amino acids and an overlap of 12 amino acids between the peptides) were pre-incubated with exemplary anti-peanut antibodies ([…]) for 1 hour at room temperature. The pre-incubated antibody-epitope mixtures were subsequently incubated on plates coated with full length Ara h 2 (coating overnight at 4° C. with 0.05 μg/ml Ara h 2 in PBS, followed by wash out and blocking with 2% BSA in PBS). The plates were subsequently washed and binding of MAbs to Ara h 2 was detected HRP-conjugated goat anti human Fc-gamma-specific antibody (Jackson ImmunoResearch, West Grove, Pa., USA) followed by measurement of the HRP activity using a tetramethylbenzidine substrate solution (TMB, Sigma-Aldrich Chemie GmbH, Buchs, Switzerland). As may be seen from Table 5, exemplary anti-peanut allergen antibody 32B10 binds to different linear Ara h 2 epitopes than 12G10 and 37D5.

Experiment [3] addresses T3, Peptide 2 (peanut).
T3 construct: also called linear Ara h 2 peptide 2
T3 peptide: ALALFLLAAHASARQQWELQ
Described as above. How it is done: as §1

Experiment [4] addresses T4, Peptide 11 (peanut).
T4 construct: also called linear Ara h 2 peptide 11
T4 peptide: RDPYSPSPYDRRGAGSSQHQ
The description is as above. How it is done: as §1

Experiment [5] concerns the target T5, Peptide 13 (peanut).
T5 construct: also called linear Ara h 2 peptide 13
T5 peptide: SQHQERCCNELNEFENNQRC
Described as above. How it is done: as §1

Experiment [6] deals with T6, Peptide 17 (peanut).
T6 construct: also called linear Ara h 2 peptide 17
T6 peptide: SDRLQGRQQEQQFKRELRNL
The experiment is described as above. How it is done:
as §1

Experiment [7] concerns the target T7, Peptide 15 (peanut).
T7 construct: also called linear Ara h 2 peptide 15
T7 peptide: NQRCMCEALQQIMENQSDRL
Described as above. How it is done:
as §1

Experiment [8] addresses T8, Peptide 18 (peanut).
T8 construct: also called linear Ara h 2 peptide 18
T8 peptide: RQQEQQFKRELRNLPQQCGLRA
The experiment is described as above. How it is done: as §1

For experiment [9], the target named is T9, Peptide 3 (peanut).
T9 construct: also called linear Ara h 2 peptide 3
T9 peptide: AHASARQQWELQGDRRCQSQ
Described as above. As for the experimental part: as §1

The target in experiment [10] is T10, Peptide 19 (peanut).
T10 construct: also called linear Ara h 2 peptide 19
T10 peptide: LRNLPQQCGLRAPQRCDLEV
Described as above. How it is done:
as §1

In experiment [11] the target is T11, Peptide 4 (peanut).
T11 construct: also called linear Ara h 2 peptide 4
T11 peptide: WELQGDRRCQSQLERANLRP
Described as above. How it is done: as §1

The target of experiment [12] is T12, Peptide 7 (peanut).
T12 construct: also called linear Ara h 2 peptide 7
T12 peptide: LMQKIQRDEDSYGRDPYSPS
The experiment is described as above. As for the experimental part: as §1

Experiment [13] addresses T13, Ara h 2 (peanut, UniProt Q6PSU2 22-172).
T13 construct: also called full length Ara h 2
T13 sequence (looked up): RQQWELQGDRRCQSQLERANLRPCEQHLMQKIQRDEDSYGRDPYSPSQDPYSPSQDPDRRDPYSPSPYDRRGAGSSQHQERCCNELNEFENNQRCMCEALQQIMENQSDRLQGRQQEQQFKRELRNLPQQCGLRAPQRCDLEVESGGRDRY
Description: competition ELISA on coated Ara h 2; control: Healthy donor serum. How it is done:
(§2) Microplates were coated with […] of Ara h 1, Ara h 2, Ara h 3, or Ara h 6, overnight at 4° C. After washing with PBS-Tween 0.05% and blocking with 2% BSA, plates were incubated with increasing concentrations of peanut human IgG antibodies for 1 h at room temperature. Subsequently, plates were incubated with different sera dilutions or different concentrations of murine antibody (as positive control). IgE levels were detected using anti-human HRP-conjugated Fc-epsilon-specific secondary antibody (Abcam, Cambridge, UK) followed by addition of TMB solution (TMB, Sigma, Buchs, Switzerland). Binding of murine antibodies was detected using goat anti-mouse IgG (H+L)-HRP (Jackson ImmunoResearch, West Grove, Pa., USA).
In general terms: ELISA stands for enzyme-linked immunosorbent assay.

Experiment [14] has as its target T13, Ara h 2. Description: competition ELISA on coated Ara h 2; competitor: Patient E serum IgE. How it is done: as §2
The target in experiment [15] is T13, Ara h 2. Description: competition ELISA on coated Ara h 2; competitor: Patient G serum IgE. As for the experimental part: as §2
Experiment [16] addresses T13, Ara h 2. Description: competition ELISA on coated Ara h 2; competitor: Patient A serum IgE. As for the experimental part:
as §2

Experiment [17] addresses T13, Ara h 2. Description: competition ELISA on coated Ara h 2; competitor: Patient F serum IgE. As for the experimental part: as §2
Experiment [18] has as its target T13, Ara h 2. The experiment is described as follows: competition ELISA on coated Ara h 2; competitor: Patient C serum IgE. How it is done: as §2

B1: h7G6 (antibody, V domains shown)
VH: QVQLVESGGGVVQPGRSLRLSCAASGIAFNDYTMHWVRRSPDKGLEWVAAISYGGTNKYYADSVKGRFTISRDSSKNTLFLQMDSLRVEDTAVYYCARDSGYRSLLHWGQGTLVTVSS
VL: EIVLTQSPLSLPVTPGEPASISCRSSQSLVHRNGYNYLDWYLQKPGQSPQLLIYMASKRASGVPDRFSGSGSGTEFTLKISRVEAEDVGIYYCMQALQTWTFGQGTKVEVN
notes: Recombinant human IgG; also called hMAb 7G6
B1 displayed an EC50 in experiment [1] of 1.3 ng/mL. Also, the binding result in experiment [2], in experiment [3], in experiment [4], in [5], in [6] and in experiment [7] was “no binding (tested: 100 µM)” each time. Further, the binding result in experiment [8], in [9], in [10], in experiment [11] and in [12] was “no binding (tested: 100 µM)” each time.

B2: h2F8 (antibody, V domains shown)
VH: EVQLVESGGGLVKPGGSLRLSCAASGFIFSDYNMNWVRQAPGKGLEWVSSITRSSRTIYYADSVKGRFTISRDNAKNSLHLQMNSLRDADTAVYYCAREDFDVSTGPYYMDVWGNGTTVIVSS
VL: EIVLTQSPGTLSLSPGERATLSCRASQSVSNMFLVWYQQKPGQAPRLLMYGASTRATDIPDRFSGSGSGTDFTLTISRLEPEDFAVYYCQQNGNSPYTFGQGTKLEIK
notes: Recombinant human IgG; also called hMAb 2F8
Molecule B2 showed an EC50 in experiment [1] of 2.8 ng/mL. Moreover, the binding result in [2], in experiment [3], in experiment [4], in experiment [5], in experiment [6] and in [7] was “no binding (tested: 100 µM)” throughout. The binding result in experiment [8], in experiment [9], in [10], in experiment [11] and in [12] was “no binding (tested: 100 µM)” in each case.

B3: h12G10 (antibody, human IgG1, V domains shown)
VH: EVQLLESGGRLLRPGGSLSLSCVASGFYFGDFGMSWVRQVPGKGLEWVSGIDWSGRSTGYVDSMKGRLTISRDNDKSSLYLQMNDLRGEDTAVYYCARVGRLCSGDSCDSMGAFDLWGQGTMVTVSS
VL: DIQLTQSPSTLSASIGDSVTITCRASQNIDNWLAWYQQKPGKAPRLLIYKASSLGSGVSSKFRGSGFGTEFTLTITSLQPDDFATYYCQKSNGYSRTFGQGTKVDIK
notes: Recombinant human IgG; also called hMAb 12G10
As to B3, the EC50 in experiment [1] stood at 33.7 ng/mL. Besides, the “% inhibition of IgE binding” value in experiment [13] turned out to be 0%; in [14] it was 36.2%; in experiment [15] it was 25.7%; in experiment [16], 13.8%; in experiment [17], 45.3%; in [18] it was 53.8%. Moreover, the binding result in experiment [2] was “no binding (tested: 100 µM)”; in [3], “no binding (tested: 100 µM)”; in [4], “binds”; in experiment [5], “no binding (tested: 100 µM)”; in experiment [6], “no binding (tested: 100 µM)”; in experiment [7], “no binding (tested: 100 µM)”. Besides, the binding result in [8], in [9], in experiment [10], in [11] and in [12] was “no binding (tested: 100 µM)” each time.

B4: h4B2 (antibody, V domains shown)
VH: QVQLQEAGPRLVKPSQTLSVTCTVSGASITIGGYYWSWIRQHPGKGLEWMGYIYSNGRTYYNPSLKSRIAMSIDTSKNQFSLKLTSVTAADTAIYFCAREAWETPLWGQGTLITVSS
VL: DIQMTQSPSSLSASVGDRVTITCQANQDIVNSLNWFQHKPGTAPKVLIYDASKLETGVPSRFSGSGSGTHFTFTISGLQPEDFATYFCQQYENLPHTFGQGTKLEIR
notes: Recombinant human IgG; also called hMAb 4B2
As for B4, the “% inhibition of IgE binding” value is 0% in [13]; 21.9% in experiment [14]; 31.8% in experiment [15]; 39.7% in experiment [16]; 30.8% in experiment [17]; 13.3% in [18]. Moreover, the binding result in experiment [2], in experiment [3], in experiment [4], in experiment [5], in experiment [6] and in experiment [7] was “no binding (tested: 100 µM)” throughout. Also, the binding result in experiment [8], in experiment [9], in [10], in experiment [11] and in [12] was “no binding (tested: 100 µM)” each time.
